Measured values from publication PMC2118540.
Like-named read-outs stand apart in the source and are kept apart here. Each block holds one molecule with its values, some of them ahead of it.

Experiments:
Assay in all cases: FRET or BRET
[1] = molecular target: HLA-A, B, C (human (endogenous in KU812))
[2] = molecular target: H-2K^b/D^b (mouse (endogenous in BMMCs))
[3] = molecular target: H-2K^b/D^b (mouse (endogenous in BMMCs)); remark: listed apart in the source

FRET efficiency (%) [1]: 20.7%
Molecule: leukocyte immunoglobulin (Ig)-like receptor (LILR) B2 (from UniProt Q8N423 22-597)

FRET efficiency (%) [3]: 13.5%
B1: paired Ig-like receptor (PIR)–B (receptor)
chain: SLPKPILRVQPDSVVSRRTKVTFLCEETIGANEYRLYKDGKLYKTVTKNKQKPENKAEFSFSNVDLSNAGQYRCSYSTQYKSSGYSDLLELVVTGHYWTPSLLAQASPVVTSGGYVTLQCESWHNDHKFILTVEGPQKLSWTQDSQYNYSTRKYHALFSVGPVTPNQRWICRCYSYDRNRPYVWSPPSESVELLVSGNLQKPTIKAEPGSVITSKRAMTIWCQGNLDAEVYFLHNEKSQKTQSTQTLQEPGNKGKFFIPSVTLQHAGQYRCYCYGSAGWSQPSDTLELVVTGIYEYYEPRLSVLPSPVVTAGGNMTLHCASDFPYDKFILTKEDKKFGNSLDTEHISSSGQYRALFIIGPTTPTHTGAFRCYGYYKNAPQLWSVPSALQQILISGLSKKPSLLTHQGHILDPGMTLTLQCFSDINYDRFALHKVGGADIMQHSSQQTDTGFSVANFTLGYVSSSTGGQYRCYGAHNLSSEWSASSEPLDILITGQLPLTPSLSVQPNHTVHSGETVSLLCWSMDSVDTFILSKEGSAQQPLRLKSKSHDQQSQAEFSMSAVTSHLSGTYRCYGAQDSSFYLLSSASAPVELTVSGPIETSTPPPTMSMPLGGLHMYLKALIGVSVAFILFLFIFIFILLRRRHRGKFRKDVQKEKDLQLSSGAEEPITRKGELQKRPNPAAATQEESLYASVEDMQTEDGVELNSWTPPEEDPQGETYAQVKPSRLRKAGHVSPSVMSREQLNTEYEQAEEGQGANNQAAESGESQDVTYAQLCSRTLRQGAAASPLSQAGEAPEEPSVYATLAAARPEAVPKDMEQ
modifications: tyrosine-phosphorylated, constitutively and after IgE stimulation (residues not given)

The next lines start with the molecule.

Molecule: β2-microglobulin (β2m), human (from UniProt P61769 21-119) (natural protein)
FRET efficiency (%) [1]: 14.5%

Molecule: β2-microglobulin (β2m), mouse (from UniProt P01887 21-119) (natural protein)
FRET efficiency (%) [2]: 8%
